PMC10016618 (Nature cell biology, 2021)
Substitutions are numbered along the chain they refer to. In names and notes the source's numbering stands. Like-named read-outs stand apart in the source and are kept apart here.

T1: Kif7-DM (1-543aa) (human, UniProt Q2M1P5 1-543)
T1 sequence (looked up): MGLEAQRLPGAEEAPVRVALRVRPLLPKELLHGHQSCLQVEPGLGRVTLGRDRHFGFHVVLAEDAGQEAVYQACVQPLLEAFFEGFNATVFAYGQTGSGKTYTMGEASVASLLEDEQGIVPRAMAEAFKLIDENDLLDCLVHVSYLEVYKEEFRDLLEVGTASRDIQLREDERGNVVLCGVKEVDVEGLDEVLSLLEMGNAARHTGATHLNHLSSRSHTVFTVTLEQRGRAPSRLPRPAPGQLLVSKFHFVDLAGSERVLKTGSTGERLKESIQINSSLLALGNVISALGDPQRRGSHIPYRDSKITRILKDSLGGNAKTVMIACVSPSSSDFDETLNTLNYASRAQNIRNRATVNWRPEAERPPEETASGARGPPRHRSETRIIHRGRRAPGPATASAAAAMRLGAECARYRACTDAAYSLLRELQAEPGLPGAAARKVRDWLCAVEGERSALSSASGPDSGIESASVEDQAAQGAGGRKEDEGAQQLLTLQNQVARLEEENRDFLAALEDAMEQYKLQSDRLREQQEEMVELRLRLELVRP

B1: Kif27M-Kif7CC-GFP (other, human, UniProt Q86VH2 1-475, looked up)
chain: MEEIPVKVAVRIRPLLCKEALHNHQVCVRVIPNSQQVIIGRDRVFTFDFVFGKNSTQDEVYNTCIKPLVLSLIEGYNATVFAYGQTGSGKTYTIGGGHIASVVEGQKGIIPRAIQEIFQSISEHPSIDFNVKVSYIEVYKEDLRDLLELETSMKDLHIREDEKGNTVIVGAKECHVESAGEVMSLLEMGNAARHTGTTQMNEHSSRSHAIFTISICQVHKNMEAAEDGSWYSPRHIVSKFHFVDLAGSERVTKTGNTGERFKESIQINSGLLALGNVISALGDPRRKSSHIPYRDAKITRLLKDSLGGSAKTVMITCVSPSSSNFDESLNSLKYANRARNIRNKPTVNFSPESDRIDEMEFEIKLLREALQSQQAGVSQTTQINREGSPDTNRIHSLEEQVAQLQGECLGYQCCVEEAFTFLVDLKDTVRLNEKQQHKLQEWFNMIQEVRKAVLTSFRGIGGTASLEEGPQHVTVPDSGIESASVEDQAAQGAGGRKEDEGAQQLLTLQNQVARLEEENRDFLAALEDAMEQYKLQSDRLREQQEEMVELRLRLELVRPGWGGPRLLNGLPPGSFVPRPHTAPLGGAHAHVLGMVPPACLPGDEVGSEQRGEQVTN
B2: Kif7-DM-GFP (1-543aa) (domain or fragment, human, UniProt Q2M1P5 1-543, looked up)
chain: T1 sequence (looked up)
B3: Kif7-DM(E502A)-GFP (domain or fragment, human, UniProt Q2M1P5 1-543, looked up)
chain: T1 sequence (looked up) with E502A
B4: Gli2-ZF (domain or fragment, human, UniProt P10070 418-604, looked up)
chain: KEDLDRDDCKQEAEVVIYETNCHWEDCTKEYDTQEQLVHHINNEHIHGEKKEFVCRWQACTREQKPFKAQYMLVVHMRRHTGEKPHKCTFEGCSKAYSRLENLKTHLRSHTGEKPYVCEHEGCNKAFSNASDRAKHQNRTHSNEKPYICKIPGCTKRYTDPSSLRKHVKTVHGPDAHVTKKQRNDVH
B5: Gli2-ZF-GFP (domain or fragment, human, UniProt P10070 418-604, looked up)
chain: B4 chain
B6: Kif7M-Kif27CC-GFP (other, human, UniProt Q2M1P5 1-462, looked up)
chain: MGLEAQRLPGAEEAPVRVALRVRPLLPKELLHGHQSCLQVEPGLGRVTLGRDRHFGFHVVLAEDAGQEAVYQACVQPLLEAFFEGFNATVFAYGQTGSGKTYTMGEASVASLLEDEQGIVPRAMAEAFKLIDENDLLDCLVHVSYLEVYKEEFRDLLEVGTASRDIQLREDERGNVVLCGVKEVDVEGLDEVLSLLEMGNAARHTGATHLNHLSSRSHTVFTVTLEQRGRAPSRLPRPAPGQLLVSKFHFVDLAGSERVLKTGSTGERLKESIQINSSLLALGNVISALGDPQRRGSHIPYRDSKITRILKDSLGGNAKTVMIACVSPSSSDFDETLNTLNYASRAQNIRNRATVNWRPEAERPPEETASGARGPPRHRSETRIIHRGRRAPGPATASAAAAMRLGAECARYRACTDAAYSLLRELQAEPGLPGAAARKVRDWLCAVEGERSALSSASGPDSVLQLKRELKKCQCVLAADEVVFNQKELEVKELKNQVQMMVQENKGHAVSLKEAQKVNRLQNEKIIEQQLLVDQLSEELTKLNLSVTSSAKENCGDG
B7: GST-Kif7-CC-GFP (domain or fragment, human, UniProt Q2M1P5 460-600, looked up)
chain: PDSGIESASVEDQAAQGAGGRKEDEGAQQLLTLQNQVARLEEENRDFLAALEDAMEQYKLQSDRLREQQEEMVELRLRLELVRPGWGGPRLLNGLPPGSFVPRPHTAPLGGAHAHVLGMVPPACLPGDEVGSEQRGEQVTN
B8: GST-Kif7-CC D505A (domain or fragment, human, UniProt Q2M1P5 460-600, looked up)
chain: B7 chain with D46A
B9: GST-Kif7-CC (460-600aa) (domain or fragment, human, UniProt Q2M1P5 460-600, looked up)
chain: B7 chain
B10: GST-Kif7-SCC (481-543aa) (domain or fragment, human, UniProt Q2M1P5 481-543, looked up)
chain: KEDEGAQQLLTLQNQVARLEEENRDFLAALEDAMEQYKLQSDRLREQQEEMVELRLRLELVRP

Legend:
SEC = target: the molecule itself; test: SEC
Gli2-ZF [1] = target: B4; test: BLI
[2] = target: GDP-taxol stabilized microtubules (bovine tubulin) (bovine) (UniProt Q6B856); test: co-sedimentation
[3] = target: the molecule itself; test: single molecule fluorescence intensity and step-photobleaching analysis
[4] = target: GDP-taxol stabilized microtubules (bovine tubulin) (bovine) (UniProt Q6B856); test: co-sedimentation; remark: listed apart in the source
Kif7-DM-GFP (1-543aa) [5] = target: B2; test: BLI
Kif7-DM (1-543aa) = target: T1, Kif7-DM (1-543aa); test: BLI
Kif7-DM(E502A)-GFP = target: B3; test: BLI
Kif7-DM-GFP (1-543aa) [6] = target: B2; test: SEC
GST-Kif7-CC-GFP = target: B7; test: SEC
Gli2-ZF-GFP = target: B5; test: BLI
Gli2-ZF [7] = target: B4; test: BLI; remark: listed apart in the source

Binder: B1
stoichiometry N (SEC): 2
Kd (Gli2-ZF [1]): 217 ± 70 nM

Binder: B2
Kd [2]: 4.23 µM
stoichiometry N [3]: 2
Kd [4]: 540 nM

Binder: B3
stoichiometry N (SEC): 2

Binder: B4
Kd (Kif7-DM-GFP (1-543aa) [5]): 138 ± 41 nM
Kd (Kif7-DM (1-543aa)): 99 ± 25 nM
Kd (Kif7-DM(E502A)-GFP): 414 ± 103 nM

Binder: B5
stoichiometry N (Kif7-DM-GFP (1-543aa) [6]): 1 Gli2-ZF per Kif7-DM chain (two per dimer)
stoichiometry N (GST-Kif7-CC-GFP): 0.5 Gli2-ZF-GFP per Kif7-CC-GFP chain (one per dimer)

Binder: B6
Kd (Gli2-ZF [1]): 397 ± 88 nM

Binder: B7
Kd (Gli2-ZF-GFP): 57 ± 9 nM
Kd (Gli2-ZF [7]): 65 ± 22 nM

Binder: B8
binding result (Gli2-ZF [7]): binds

Binder: B9
Kd (Gli2-ZF [7]): 48 ± 5 nM

Binder: B10
Kd (Gli2-ZF [7]): 69 ± 20 nM
